The conditions of series [1]: mouse, in vivo.
Procedure: 300 mg of the prepared microparticles was suspended and dispersed in 3 ml of phosphate physiological buffer solution (PBS), and centrifuged for 5 minutes at 80×g to precipitate microparticles, and the supernatant was transferred into other tube. The supernatant was centrifuged again for 5 minutes at 80×g to precipitate the remaining particles, and the supernatant was removed. By re-dispersing in 1 ml of PBS after first time of centrifugal precipitation and second time of centrifugal precipitation, the same centrifugal cleaning operation was repeated three times, and the growth hormone not encapsulated in the microparticles were removed. Finally, the precipitation was dispersed again in 200 μl of PBS, and an administration solution was obtained.
This solution was injected hypodermically at two positions in the back of 10-week male Balb/C mouse, and the blood was sampled at specific time intervals from the caudal vein. In the sampled blood, heparin of final concentration of 3.31 U/ml was added, and plasma was collected by centrifugal separation for 5 minutes at 5,000 rpm, and the concentration of growth hormone in plasma was measured by using an ELISA kit.
By way of comparison, a non-granulated human growth hormone protein solution (700 μg/0.2 ml) was hypodermically administered in mouse, and the blood was sampled similarly. […]
The nature of series [2]: Body weight changes of pituitary gland extracted mouse after hGH microparticles. As to conditions: hypodermic administration. The series is classed as in vivo.
The conditions of series [3]: mouse, in vivo. The method, then:
(§1) The supernatant was centrifugally separated again for 5 minutes at 80×g, and the remaining particles were precipitated, and the supernatant was removed.
The source holds these as a separate data set.

A short description of series [4]: Hypodermic administration of Exendin-4-encapsulating microparticles in SCID mouse, Exendin-4 in plasma. The series is classed as in vivo. The following applies: 700 μg/0.2 ml. As for the experimental part: as §1
This solution was hypodermically injected in the back of 8-week-old SCID mouse (CB17/lcr-Prkdcscid/CrlCrlk) (from Crea Japan Inc.), and the blood was sampled at specific intervals from the caudal vein.

Like-named read-outs stand apart in the source and are kept apart here.

As for “human growth hormone [non-granulated human growth hormone]”, the “time in which blood level dropped to a level before administration” value in series [1] is on record as “a day”. Further, the body weight increase entry in series [2] was “about 5%”.
As for Exendin-4 [non-granulated Exendin-4], the “time in which blood level dropped to a level before administration” value in series [3] was “a day”. Moreover, the “blood level in 1 hour after administration (Exendin-4 in plasma)” value in series [4] was “very high”.

The record behind these values is patent US8431161B2, “Microparticle and pharmaceutical composition thereof” (Toray Industries, Inc., priority 2008, dated 2013).
